From patent US20210269525A1 (BIOCYTOGEN PHARMACEUTICALS BEIJING, published 2021)
Numbering of substitutions follows the chain as printed. Names may count otherwise.

B1: 25-10A4 (antibody, V domains shown)
VH: QVQLQQSGPELVKPGASVRISCKASGYTFTSYYIHWVKQRPGQGLEFIGWIYPGNVNAKYNEKFKGKATLTTDKSSTTAYMQLSSLTSEDSAVYFCAIKGGNYDWGQGTLVTVSA
VL: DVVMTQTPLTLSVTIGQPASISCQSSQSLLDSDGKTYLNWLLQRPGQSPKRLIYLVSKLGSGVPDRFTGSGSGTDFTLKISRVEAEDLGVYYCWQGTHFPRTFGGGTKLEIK
B2: 30-1B1 (antibody, V domains shown)
VH: QVQLQQPGSELVRPGASVKLSCKASGYTFTSYWMHWVKQRHGQGLEWIGNIYPDSGTTNYGEKFKTKGTLTVDTSSSTAYMHLSSLTSEDSAVYYCTRDTSGQYYFDYWGQGTTLTVSS
VL: DIVMSQSPSSLAVSAGEKVTMSCKSSQSLLNSRTRKNYLAWYQHKPGQSPKLLIYWASTRESGVPDRFTGSGSGTDFTLTISSVQAEDLAVYYCVQSFSLRAFGGGTKLEIK
B3: C3E-30-1B1-mHvKv-IgG1-LALA (antibody, V domains shown)
VH: B2 VH
VL: B2 VL
notes: Chimeric

Assays:
[1] = target: human CD3e (T-cell surface glycoprotein CD3 epsilon chain) (human, UniProt P07766 23-207); experiment: cell-based or functional assay
[2] = target: T1, Histidine-tagged human CD3e protein (human, UniProt P07766 23-126); experiment: SPR (Biacore), human CD3e; same numbers as Table 7
T1 construct: also called hCD3e-His; not shown: His tag

[3] = target: T2, Cynomolgus CD3 epsilon Protein, His Tag (Acrobiosystems, Cat #CDE-05226) (cynomolgus (Macaca fascicularis), UniProt Q95LI5 22-117); experiment: SPR (Biacore), cynomolgus CD3e His tag
T2 construct: also called monkey CD3e; not shown: His tag
T2 sequence: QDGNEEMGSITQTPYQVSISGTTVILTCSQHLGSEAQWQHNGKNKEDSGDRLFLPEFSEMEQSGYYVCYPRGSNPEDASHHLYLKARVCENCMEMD
Method: The binding affinity of the anti-hCD3e antibodies with monkey CD3e (Cynomolgus CD3 epsilon Protein (SEQ ID NO: 39 AA Gln 22-Asp 117), His Tag, Acrobiosystems, Cat #CDE-05226) were also measured using surface plasmon resonance (SPR) using Biacore (Biacore, INC, Piscataway N.J.) by the methods as described in the examples.

[4] = target: T3, Histidine-tagged rCD3e protein (rhesus macaque, Macaca mulatta) (rhesus macaque (Macaca mulatta), UniProt Q95LI5 22-117 (cynomolgus entry), limits assumed); experiment: SPR, Biacore T200, antibody on Protein A chip, rCD3e-His injected
T3 construct: also called rCD3e-His; rmCD3e; not shown: His tag
T3 chain: T2 sequence with Q16H, A36V
Method: (§1) The binding affinity of the anti-hCD3e antibodies were measured using surface plasmon resonance (SPR) using Biacore (Biacore, INC, Piscataway N.J.) T200 biosensor equipped with pre-immobilized Protein A sensor chips (Protein A (Lot:10260138)-5).
Experiments were also performed to test the binding affinities with rCD3e (rhesus macaque, or Macaca mulatta). Anti-hCD3e antibodies (1:20) were injected into Biacore T200 biosensor at 10 μL/min for 30 seconds to achieve to a desired protein density. Histidine-tagged rCD3e proteins (rCD3e-His) with different concentrations (100 nM 0.390625 nM) were then injected to the system at 30 μL/min for 150 seconds. Dissociation was monitored for 450 seconds. The chip was regenerated after the last injection of each titration with Glycine (pH 2.0, 30 μL/min for 12 seconds).

[5] = target: T1, Histidine-tagged human CD3e protein; experiment: SPR, Biacore T200, antibody on Protein A chip, hCD3e-His injected
Method: as §1
Anti-hCD3e antibodies were collected from CHO-S cells. The antibodies (1:20) were injected into Biacore T200 biosensor at 10 μL/min for 35 seconds to achieve to a desired protein density. Histidine-tagged human CD3e proteins (hCD3e-His) with different concentrations (100 nM 0.390625 nM) were then injected to the system at 30 μL/min for 150 seconds. Dissociation was monitored for 600 seconds. The chip was regenerated after the last injection of each titration with Glycine (pH 2.0, 30 μL/min for 5 seconds).

Binder | EC50, luciferase of Jurkat-Luc-NFAT cells with CHO-FcγRIIB cells [1] [µg/mL] | Kd [2] [nM] | koff [2] [s⁻¹] | kon [2] [M⁻¹ s⁻¹] | Kd [3] [nM] | koff [3] [s⁻¹] | kon [3] [M⁻¹ s⁻¹] | Kd [4] [nM] | koff [4] [s⁻¹] | kon [4] [M⁻¹ s⁻¹] | Kd [5] [nM] | koff [5] [s⁻¹] | kon [5] [M⁻¹ s⁻¹]
B1 | 0.421 |  |  |  |  |  |  |  |  |  |  |  | 
B2 | 2.98 |  |  |  |  |  |  |  |  |  |  |  | 
B3 |  | 0.988 | 0.000509 | 516000 | 4.54 | 0.00049 | 108000 | 0.752 | 0.00039 | 518000 | 0.988 | 0.000509 | 516000
